Measured values: the supplement of paper PMC10567573
± gives the standard deviation.

Test: protein stability index of a GFP-peptide fusion (GPS, HEK-293T) (PSI 1-6); higher = more stable
Conditions: c terminus: a fixed tail appended
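Note: 24-mer peptide tiles fused after GFP, lentivirally expressed, FACS-sorted into six equal bins by GFP/DsRed ratio, decoded by Illumina sequencing, PSI is the read-weighted mean bin number.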

Sequence	protein stability index (treatment: DMSO)	protein stability index (treatment: MLN4924 1 uM, 8 h)
LRQQLVVSKELRMYDEKAHEWKSL [KLHL13]	2.93 ± 0.11	2.98 ± 0.15
LRRAWFSWPRASPASGASSIKPEA [SCNN1D]	2.99 ± 0.18	3.04 ± 0.19
LRVHLKMVDSFHRTSLQYGIMCLK [PPFIA4]	2.99 ± 0.047	2.9 ± 1
LSKEYWDCLEGKKSKHAPRGTHLW [ELF3]	2.82 ± 0.45	3.17 ± 0.24
LSNLTHVLYPVPLESYEDIHGTLH [PRAME]	2.5 ± 0.3	2.69 ± 0.27
LSQALNGLSDRAKEAKEFLVQLRN [TRIM9]	3.29 ± 0.41	3.26 ± 0.32
LSVDPEEEREEGPPRIPQADQWKS [RHOBTB1]	5.28 ± 0.075	5.26 ± 0.24
LTCALMLLNTDLHGHNIGKKMSCQ [PSD2]	2.54 ± 0.49	2.41 ± 0.74
LTFFAFLHCWLNAFAEMLRFGDRM [SOAT1]	3.4 ± 0.23	2.9 ± 0.5
LTFLTKQEILLAHRRFCELLPQEQ [CIB1]	2.4 ± 0.44	2.55 ± 0.19
LTIMPYNSAHHCVVEVENFLFVLG [KLHL14]	3.26 ± 0.64	3.02 ± 0.32
LTSADRETAEEVSARIVQVVTAEA [MAP2]	4.86 ± 0.28	4.89 ± 0.42
LTTFQDQLNRRGEFIQEIRRQLEA [OAS1]	3.3 ± 0.35	3.29 ± 0.27
LTVLPKLQARERGEEQVELSTIEE [C2CD2L]	5.14 ± 0.17	4.96 ± 0.54
LVDQVTGVSRGVGFIRFDKRIEAE [ELAVL3]	2.97 ± 0.52	2.88 ± 0.62
LVGLTVIGAFLNLVVLRFLTMNSE [KCNK9]	3.42 ± 0.46	3.42 ± 0.25
LVHVMERSLSPSLSSVDMRMTSSP [RAD54B]	2.51 ± 0.34	2.58 ± 0.36
LVQVESVNLQVATYSKFQPQSPDF [UFD1]	2.32 ± 0.22	2.35 ± 0.32
LVRDWSFPYEYSYGLQGGMAFLDK [ATL3]	1.96 ± 0.23	2.19 ± 0.38
LVVAVAAVSCVFLAFVIVLLAHRL [PCDHGA10]	2.9 ± 0.83	2.83 ± 0.15
LYGLGSGSSYVQNGTGNAYEEEAN [CNOT7]	4.74 ± 0.2	4.84 ± 0.24
LYLNLALHLASDFFLKHPDKDVRL [PDS5B]	2.73 ± 0.41	3.29 ± 0.27
LYPREGKYNHAACFGLQPGCLLPD [NLN]	2.96 ± 0.33	3.1 ± 0.44

Sequence	protein stability index (treatment: DMSO)	protein stability index (treatment: MLN4924 1 uM, 8 h)
MAAGGRMEDGSLDITQSIEDDPLL [TMEM192]	4.7 ± 0.29	4.87 ± 0.16
MAAGGSGVGGKRSSKSDADSGFLG [NOP53]	3.57 ± 0.22	3.96 ± 0.12
MDGATLCNCALEELRLVFGPLGDQ [ELF3]	2.33 ± 0.27	2.4 ± 0.68
MEGLAGYVYKAASEGKVLTLAALL [FEM1B]	2.22 ± 0.31	2.09 ± 0.44
MEKSSFTEYIESPDVENEVKRLLR [TAF7L]	3.79 ± 0.28	3.83 ± 0.23
MENKSLESSQTDLKLVAHPRAKSK [ZBED1]	5.26 ± 0.29	5.27 ± 0.25
MEQPTSSTNGEKTKSPCESNNKKN [SPANXN3]	5.32 ± 0.33	4.92 ± 0.85
MGGTQQQFVEGVRMEEIVEGCTGA [CTNNB1]	5.09 ± 0.15	5.1 ± 0.072
MGNLVMFRKDSVLNILIQSLDWET [INTS3]	2.68 ± 0.64	2.82 ± 0.45
MIIVAISPKYKQDVEGAESQLDED [TRAF3IP2]	2.52 ± 0.14	2.26 ± 0.25
MIRESETKKGFYSLSVRHRQVKHY [SLA]	2.59 ± 0.44	2.94 ± 0.13
MLENYSNLVSVGYQAGKPDALTKL [ZNF649]	2.72 ± 0.2	2.83 ± 0.18
MLPGVGVFGTSLTARVIIPLLKDE [GFOD1]	2.17 ± 0.19	2.02 ± 0.16
MLTVMTKYQANITETQRLGLAMAL [FANCE]	2.52 ± 0.43	2.48 ± 0.25
MNGDSRAAVVTSPPPTTAPHKERY [ADD1]	4.89 ± 0.26	5.07 ± 0.22
MNYMPGTASLIEDIDKKHLVLLRD [LSM1]	3.15 ± 0.16	3.27 ± 0.32
MQAAEVFSQKHFPEVVQHEEFILL [KLHL12]	2.17 ± 0.48	2.44 ± 0.73
MRAAALCDKHSKLFEEPEDPSNRS [PPP2R2C]	5.14 ± 0.12	5.17 ± 0.12
MRGPEPGPQPTMEGDVLDTLEALG [FAM98B]	5.19 ± 0.34	5.087 ± 0.039
MSPYLVPDTQALCHHLPVIRQLAT [SMG5]	2.3 ± 0.28	2.52 ± 0.22
MSQTVQRMLVAASWACAFTNALTH [OR3A1]	3.3 ± 0.22	3.31 ± 0.23
MTSMSAELKMRAIQAEERLDMEKR [LRRC45]	4.65 ± 0.19	4.9 ± 0.16
